Measurements as given in doi:10.1101/2019.12.13.875658 (bioRxiv, 2019).

Key:
β subunit of RNAP = β subunit of RNAP (E. coli, UniProt P0A8V2 1-1342); test: cryo-EM structure
cryo-EM structure = biological target: the molecule itself; test: cryo-EM structure

Chain of β subunit of RNAP (P0A8V2 whole entry): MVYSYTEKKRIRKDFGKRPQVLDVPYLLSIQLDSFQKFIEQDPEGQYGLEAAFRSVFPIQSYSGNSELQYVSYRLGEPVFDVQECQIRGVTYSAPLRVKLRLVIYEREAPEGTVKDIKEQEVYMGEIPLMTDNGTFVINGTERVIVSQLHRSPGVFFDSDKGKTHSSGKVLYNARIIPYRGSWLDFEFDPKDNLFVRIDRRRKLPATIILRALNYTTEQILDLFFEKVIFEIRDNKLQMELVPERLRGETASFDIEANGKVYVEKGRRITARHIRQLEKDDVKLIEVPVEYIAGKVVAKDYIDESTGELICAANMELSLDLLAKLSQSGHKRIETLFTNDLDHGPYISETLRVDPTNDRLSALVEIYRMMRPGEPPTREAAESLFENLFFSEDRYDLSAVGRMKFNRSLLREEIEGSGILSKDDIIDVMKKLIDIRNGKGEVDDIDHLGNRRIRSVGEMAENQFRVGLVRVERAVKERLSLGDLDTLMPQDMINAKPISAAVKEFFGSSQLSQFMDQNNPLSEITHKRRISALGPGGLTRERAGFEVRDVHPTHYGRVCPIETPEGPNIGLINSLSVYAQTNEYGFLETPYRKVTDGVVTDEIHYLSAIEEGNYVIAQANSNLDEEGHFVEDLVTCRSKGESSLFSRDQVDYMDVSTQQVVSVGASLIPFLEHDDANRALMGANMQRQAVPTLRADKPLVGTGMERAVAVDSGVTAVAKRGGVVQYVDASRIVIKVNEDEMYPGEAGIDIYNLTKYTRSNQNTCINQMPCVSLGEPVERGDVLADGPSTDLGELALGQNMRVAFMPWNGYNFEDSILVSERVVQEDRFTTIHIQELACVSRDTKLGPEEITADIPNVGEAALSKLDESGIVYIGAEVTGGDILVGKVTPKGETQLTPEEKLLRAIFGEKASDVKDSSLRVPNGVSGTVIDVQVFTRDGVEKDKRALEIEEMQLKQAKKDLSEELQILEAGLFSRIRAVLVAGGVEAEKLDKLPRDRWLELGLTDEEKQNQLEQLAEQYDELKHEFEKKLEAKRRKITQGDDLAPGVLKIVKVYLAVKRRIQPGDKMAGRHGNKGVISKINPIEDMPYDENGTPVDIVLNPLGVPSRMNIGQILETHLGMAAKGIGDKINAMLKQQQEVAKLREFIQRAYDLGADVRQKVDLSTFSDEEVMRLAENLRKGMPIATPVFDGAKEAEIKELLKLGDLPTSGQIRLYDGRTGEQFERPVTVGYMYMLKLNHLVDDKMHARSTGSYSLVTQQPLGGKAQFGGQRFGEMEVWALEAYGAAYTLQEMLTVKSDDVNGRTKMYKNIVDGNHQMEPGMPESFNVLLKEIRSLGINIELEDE

B1: Cyclic AMP receptor protein (CAP) (natural protein)
chain: MVLGKPQTDPTLEWFLSHCHIHKYPSKSTLIHQGEKAETLYYIVKGSVAVLIKDEEGKEMILSYLNQGDFIGELGLFEEGQERSAWVRAKTACEVAEISYKKFRQLIQVNPDILMRLSAQMARRLQVTSEKVGNLAFLDVTGRIAQTLLNLAKQPDAMTHPDGMQIKITRQEIGQIVGCSRETVGRILKMLEDQNLISAHGKTIVVYGTR
binding result (β subunit of RNAP): binds | stoichiometry N (cryo-EM structure): 2
